The values that follow come from patent US6916470.

The target in this assay is human mpl (myeloproliferative leukemia receptor, TPO receptor) expressed on stably transfected BaF3 cells (human) (UniProt P40238). In words: cell-based or functional assay.

In turn, “human thrombopoietin (TPO), expressed in COS cells from cDNA cloned from human fetal liver; used as TPO-containing COS supernatant (from UniProt P40225 22-353) (ligand)” showed a proliferation of mpl-expressing BaF3 cells (activity of the supernatant) of 300000 U/ml.
